# Data published in publication PMC13138739, “Broadly conserved protective epitopes on the lyme disease vaccine antigen, OspA” (PLOS Pathogens, 2026).
# B1: 221-5, recombinant human monoclonal IgG1 (antibody, V domains shown)
# VH: EVQLVQSGAEVKKPGESLKISCKGSGYSFTSYWIGWVRQMPGKGLEWMGIIYPGDSDTRYSPSFQGQVTISADKSISTAYLQWSSLKASDTAMYYCARHLGIDYFFGMDVWGQGTTVTVSS
# VL: EIVLTQSPATLSLSPGERATLSCRASQSVSSYLAWYQQKPGQAPRLLIYDASTRDTGIPARFSGSGSGTDFTLTISSLEPEDFAVYYCQHHSNWYTFGQGTKLEIK
# notes: source: Expi293 cells, transiently transfected with VH and VL plasmids, purified (Protein A)
# B2: 221-20, recombinant human monoclonal IgG1 (antibody, V domains shown)
# VH: EIQLVQSGTEVKKPGESLRISCRVSGYSFTNYWVAWVRQMPGKGLEWMGIIWPGDSDTRYSPSFQGQVTISADKSINTAYLQWSSLKASDTAVYYCARHLGIDYFFGLDVWGQGTTVTVSS
# VL: EIVLTQSPATLSLSPGERATLSCRASQSVSSYLAWYQQKPGQAPRLLIYDASSRATGIPARFSGSGSGTDFTLTISSLEPEDFAVYYCQHLSNWYTFGQGTNLEIK
# notes: as for B1
# B3: 227-1, recombinant human monoclonal IgG1 (antibody, V domains shown)
# VH: EVQLVQSGAEVKMPGESLKISCEVSGYSFTSYWIGWVRQMPGKGLEWMGIIYPGDSDTRYSPSFQGQVTISADKSISTAYLQWSSLKASDTAMYYCTRSISRSGPGFSLSWFFDYWGQGTLVTVSS
# VL: AIQLTQSPSSLSASVGDRVTITCRASQGISNALAWYQQKPGKAPKLLIYDASSLERGVPSRFSGSGFGTDFTLTISSLQPEDFAIYYCQQFNGFPNTFGQGTRVEIK
# notes: as for B1
# B4: 227-2, recombinant human monoclonal IgG1 (antibody, V domains shown)
# VH: EVQVVQSGAEVKKPGESLKISCKGSGYSFTSYWIGWVRQMPGKGLEWMGIIYPGDSDTRYSPSFQGQVTISADKSISTAYLQWSSLKASDTAMYYCVRSISRSGPGYILSWFFDYWGQGSLVTVSS
# VL: AIQLTQSPSSLSASVGDRVTITCRASQGISNALAWYQQKPGKAPKLLIYDASSLERGVPSRFSGSGFGTDFTLTISSLQPEDFAIYYCQQFNGFPNTFGQGTRVEIK
# notes: as for B1
# B5: 221-7, recombinant human monoclonal IgG1 (antibody, V domains shown)
# VH: EVQLVQSGSEVKKPGESLKISCQVSGYSFTSYWIGWVRQMPGKGLERVGFIYPGDSDTRYSPSFQGQVTISADKSISTAYLQWSSLKASDTAMYYCARGILRYFDWFLDYWGQGTLVTVSS
# VL: AIQLTQSPSSLSASVGDRVTITCRASQGISSGSAWYQQKPGKAPKLLIYDVSSLESGVPSRFSGSGSGTEFTLTISSLQPEDFATYYCQQFNSYLLTFGGGTKVEIK
# notes: as for B1
# B6: 223-5, recombinant human monoclonal IgG1 (antibody, V domains shown)
# VH: EVQLVQSGAEVKKPGESLKISCKGSGYSLTSYWIGWVRQMPGKGLEWMGIIWPGDSDTRYSPSFQGQVTISADKSISTAYLQWSSLKASDTAMYYCARYVTVGAFDFWGQGTMVTVSS
# VL: AIQLTQSPSSLSASVGDRVTITCRASQGISSALAWYQQKPGKTPKLLIYDVSSLESGVPSRFSGSGCGTDFTLTISSVQPEDFATYYCQQFNSYLWTFGQGTKVEIK
# notes: as for B1
# B7: 221-11, recombinant human monoclonal IgG1 (antibody, V domains shown)
# VH: EVQLVQSGAEVKKPGESLKISCQSSGYRFTIYWIGWVRQMPGKGLEWMGIIWPGDSDTRYSPSFQGQVTISADKSISTAYLQWSSLKASDTAMYYCVRGIGRYSNWFLDYWGQGTLVTVSS
# VL: AIQLTQSPSSLSASVGDRVTITCRASQGFSSALAWYQQKPGKAPKLLIYDASSLESGVPSRFSGSGSGTDFTLTISSLQPEDFATYYCQQFNSYPLTFGGGTKVEIK
# notes: as for B1
# B8: LA-2 IgG (antibody, V domains shown)
# VH: QIQLVQSGPELKKPGETVKISCKASGYTFTDYSMYWVKQAPGKGLKRMGWINTETGEPTYADDFKGRFALSLDTSASTAYLHISNLKNEDTATYFCARGLDSWGQGTSVTVSS
# VL: DIQMTQSPSSLSATLGGKVTITCKASQDINKYIAWYQHKPGKGPRLLIHYTSTLQPGNPSRFSGSGSGRDYSFSISNLEAEDIAIYYCLQYDNLQRTFGGGTKVEIK
# notes: also called OspA ST 1-specific IgG mAb LA-2
# B9: 857-2, recombinant human monoclonal IgG1 (antibody, V domains shown)
# VH: EVQLVQSGEEVKKPGESLKISCKGSGYKFSSYWIGWVRQMPGKGLEWMGIIFPGDSDKRYSPSFQGQVTISADKSISTVYLQWSSLKASDTAMYYCARHITTHTYRGFFDFWGQGTLVTVSS
# VL: AIQLTQSPSSLSASVGDRVTITCRASQDISSALAWYQQKPGKAPKLLIYDVSSLESGVPSRFSGSGSGTDFTLTISSLQPEDFATYYCQQFNGYPHRLTFGGGTKVEIK
# notes: as for B1
# Assays:
# [1] = target: T1, OspA ST1 (B. burgdorferi B31 allele) on the B. burgdorferi HB19-R1 reporter strain (Borrelia burgdorferi B31 (OspA ST1), UniProt P0CL66); assay: flow cytometry on cells; live B. burgdorferi HB19-R1 reporter strains expressing OspA ST1-7, 10 µg/ml mAb, Alexa 647-labeled goat anti-human IgG; conditions: one partner purified
# T1 construct: OspA of B. burgdorferi B31 (ST1), lipoprotein on the cell surface; a second wild type ST1 plasmid with silent mutations was used beside the residue 107 mutants; same protein; also called HB19-R1 OspAST1 reporter; source: B. burgdorferi HB19-R1 (lacks ospA), reporter plasmid pGW217, native ospAB promoter, on live cells
# [2] = target: T2, OspA ST4 (B. bavariensis PBi allele) on the B. burgdorferi HB19-R1 reporter strain (Borrelia bavariensis PBi (OspA ST4), UniProt Q6LBF1, strain); assay: as above; conditions: one partner purified
# T2 construct: OspA of B. bavariensis PBi (ST4); source: B. burgdorferi HB19-R1 (lacks ospA), reporter plasmid, native ospAB promoter of B31, on live cells
# [3] = target: OspA ST3 (B. garinii PBr allele) on the B. burgdorferi HB19-R1 reporter strain (Borrelia garinii PBr (OspA ST3), UniProt B8F1J0, strain); assay: as above; conditions: one partner purified
# [4] = target: T3, OspA ST2 (B. afzelii PKo allele) on the B. burgdorferi HB19-R1 reporter strain (Borrelia afzelii PKo (OspA ST2), UniProt P0A3N7); assay: as above; conditions: one partner purified
# T3 construct: OspA of B. afzelii PKo (ST2); source: B. burgdorferi HB19-R1 (lacks ospA), reporter plasmid, native ospAB promoter of B31, on live cells
# [5] = target: T4, Recombinant OspAST1 (residues 18–273) from B. burgdorferi B31 (Borrelia burgdorferi B31 (OspA ST1), UniProt P0CL66); assay: BLI; Octet RED96e; mAb captured on AHC sensors (0.4 µg/mL, 5 min), dipped into non-lipidated OspA 21.58 nM to 0.089 nM (10 min), dissociation 30 min; 0.1% BSA in PBS, 0.01% Tween20; global 1:1 model; conditions: both partners purified
# T4 construct: source: tags removed with TEV protease; not shown: deca-histidine, N-terminal, cleaved; SUMO, N-terminal, cleaved
# [6] = target: T5, Recombinant non-lipidated OspA serotype 4 (Borrelia bavariensis (OspA ST4; strain …, UniProt Q6LBF1, strain); assay: microsphere immunoassay (MIA); recombinant non-lipidated OspA ST 1-7 coupled to Magplex-C microspheres, serial dilutions of mAb, 1 x PBS, 2% BSA, pH 7.4, room temperature 1 hr, PE anti-human IgG Fc; conditions: both partners purified
# T5 construct: OspA serotype 4, non-lipidated; also called recombinant OspA ST4; ST 4; source: E. coli, purified; provided by Dr. Meredith Finn (Moderna)
# [7] = target: T6, Recombinant non-lipidated OspA serotype 2 (Borrelia afzelii (OspA ST2; strain not …, UniProt P0A3N7); assay: as above; conditions: both partners purified
# T6 construct: OspA serotype 2, non-lipidated; also called recombinant OspA ST2; ST 2; source: E. coli, purified; provided by Dr. Meredith Finn (Moderna)
# [8] = target: T7, Native OspA ST4 on B. bavariensis PBi (Borrelia bavariensis PBi (OspA ST4), UniProt Q6LBF1, strain); assay: flow cytometry on cells; live Borrelia primary isolates with native OspA ST1-7, 10 µg/ml mAb, Alexa 647-labeled goat anti-human IgG; conditions: one partner purified
# T7 construct: native OspA (ST4) on the bacterial surface of the primary isolate; also called ST 4- B. bavariensis PBi; source: endogenous, on live B. bavariensis PBi
# [9] = target: T8, Native OspA ST3 on B. garinii PBr (Borrelia garinii PBr (OspA ST3), UniProt B8F1J0, strain); assay: as above; conditions: one partner purified
# T8 construct: native OspA (ST3) on the bacterial surface of the primary isolate; also called ST 3- B. garinii PBr; source: endogenous, on live B. garinii PBr
# [10] = target: T9, Native OspA ST2 on B. afzelii Pko (Borrelia afzelii PKo (OspA ST2), UniProt P0A3N7); assay: as above; conditions: one partner purified
# T9 construct: native OspA (ST2) on the bacterial surface of the primary isolate; also called ST 2- B. afzelii Pko; source: endogenous, on live B. afzelii Pko
# T9 sequence (P0A3N7 17-273): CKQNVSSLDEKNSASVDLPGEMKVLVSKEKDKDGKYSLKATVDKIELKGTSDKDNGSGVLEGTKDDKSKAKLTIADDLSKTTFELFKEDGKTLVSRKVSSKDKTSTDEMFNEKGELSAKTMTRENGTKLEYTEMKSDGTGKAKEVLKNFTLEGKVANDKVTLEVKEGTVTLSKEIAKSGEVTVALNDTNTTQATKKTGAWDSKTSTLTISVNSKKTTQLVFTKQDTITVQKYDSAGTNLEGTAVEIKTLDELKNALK
# T1 sequence (P0CL66 17-273): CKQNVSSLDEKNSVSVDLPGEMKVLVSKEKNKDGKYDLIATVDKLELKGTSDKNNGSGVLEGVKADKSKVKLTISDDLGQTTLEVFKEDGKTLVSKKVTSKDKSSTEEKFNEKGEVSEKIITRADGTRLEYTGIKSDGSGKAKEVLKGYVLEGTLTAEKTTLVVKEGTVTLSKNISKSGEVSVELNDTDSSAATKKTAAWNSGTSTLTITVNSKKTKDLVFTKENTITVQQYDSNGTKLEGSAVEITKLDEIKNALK
# T4 sequence (P0CL66 18-273): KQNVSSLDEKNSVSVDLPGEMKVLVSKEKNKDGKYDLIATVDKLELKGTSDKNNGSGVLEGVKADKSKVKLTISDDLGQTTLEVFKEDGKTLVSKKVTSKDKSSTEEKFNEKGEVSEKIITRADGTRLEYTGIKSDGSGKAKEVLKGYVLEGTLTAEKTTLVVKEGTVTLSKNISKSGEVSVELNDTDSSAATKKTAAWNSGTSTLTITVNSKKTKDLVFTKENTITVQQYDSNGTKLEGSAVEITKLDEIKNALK
# T3 sequence (P0A3N7 17-273): as the sequence (P0A3N7 17-273) above
# T6 sequence (P0A3N7 17-273): as above
binder,measurement,setting,value
B1,MFI,[1],> 4000
same,MFI,[2],> 4000
same,MFI,[3],> 4000
same,MFI,[4],> 4000
same,Kd,[5],0.52 nM
B2,MFI,[1],> 4000
same,MFI,[2],> 4000
same,MFI,[3],> 4000
same,MFI,[4],> 4000
same,Kd,[5],0.37 nM
B3,binding result,[2],binds
same,binding result,[3],no binding
same,binding result,[4],binds
same,binding result,[6],binds
same,binding result,[7],binds
same,Kd,[5],1.7 nM
B4,binding result,[2],binds
same,binding result,[4],binds
same,binding result,[6],binds
same,binding result,[7],binds
same,Kd,[5],0.48 nM
B5,Kd,[5],0.66 nM
B6,Kd,[5],0.17 nM
B7,binding result,[2],binds
same,binding result,[4],binds
same,binding result,[6],binds
same,binding result,[7],binds
same,Kd,[5],0.35 nM
B8,MFI,[1],> 7000
same,binding result,[2],no binding (tested: 10 µg/ml)
same,binding result,[3],no binding (tested: 10 µg/ml)
same,binding result,[4],no binding (tested: 10 µg/ml)
same,binding result,[8],no binding (tested: 10 µg/ml)
same,binding result,[9],no binding (tested: 10 µg/ml)
same,binding result,[10],no binding (tested: 10 µg/ml)
same,Kd,[5],64 nM
B9,MFI,[1],> 4000
same,MFI,[2],> 4000
same,MFI,[3],> 4000
same,MFI,[4],> 4000
same,Kd,[5],0.3 nM
